Results from patent US20240343803A1 (SHANDONG SIMCERE BIOPHARMACEUTICAL, published 2024).

T1: human PVRIG-mFc protein (Acro, PVG-H5253) (human, UniProt Q6DKI7 41-171, limits assumed)
T1 construct: bought protein
T1 sequence (looked up): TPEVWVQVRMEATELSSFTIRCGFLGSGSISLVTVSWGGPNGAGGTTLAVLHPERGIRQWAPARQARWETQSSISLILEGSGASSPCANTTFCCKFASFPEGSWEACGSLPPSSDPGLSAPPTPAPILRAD

T2: Full-length human TIGIT on CHO-K1 cells (CHO-K1 human TIGIT) (human, UniProt Q495A1 22-244)
T2 construct: NCBI XP_024309156.1; the entry includes the signal peptide (limits not recoverable); The strain (high, medium, low) is named under assay; also called high expression strain 1D2; medium expression strain 2D10
T2 sequence: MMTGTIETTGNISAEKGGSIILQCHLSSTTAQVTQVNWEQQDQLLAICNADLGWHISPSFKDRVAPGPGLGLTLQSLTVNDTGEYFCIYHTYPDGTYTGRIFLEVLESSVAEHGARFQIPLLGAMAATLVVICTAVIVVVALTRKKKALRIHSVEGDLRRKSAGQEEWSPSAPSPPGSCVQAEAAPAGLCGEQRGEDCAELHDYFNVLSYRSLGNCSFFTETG

T3: TIGIT on human PBMCs stimulated by SEA (human, UniProt Q495A1 22-244)
T3 construct: whole, on cells
T3 sequence (looked up): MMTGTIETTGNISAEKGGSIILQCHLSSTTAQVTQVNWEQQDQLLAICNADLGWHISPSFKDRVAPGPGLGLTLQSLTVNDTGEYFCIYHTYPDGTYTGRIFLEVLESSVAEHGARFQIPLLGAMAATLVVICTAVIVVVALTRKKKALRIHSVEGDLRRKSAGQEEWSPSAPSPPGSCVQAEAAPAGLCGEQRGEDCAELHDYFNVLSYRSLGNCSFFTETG

T4: Fusion protein of extracellular domain of human TIGIT and mouse IgG2a Fc fragment (human TIGIT ECD-mFc) (human)
T4 construct: The entry includes the signal peptide (limits not recoverable) and the mouse IgG2a Fc
T4 chain: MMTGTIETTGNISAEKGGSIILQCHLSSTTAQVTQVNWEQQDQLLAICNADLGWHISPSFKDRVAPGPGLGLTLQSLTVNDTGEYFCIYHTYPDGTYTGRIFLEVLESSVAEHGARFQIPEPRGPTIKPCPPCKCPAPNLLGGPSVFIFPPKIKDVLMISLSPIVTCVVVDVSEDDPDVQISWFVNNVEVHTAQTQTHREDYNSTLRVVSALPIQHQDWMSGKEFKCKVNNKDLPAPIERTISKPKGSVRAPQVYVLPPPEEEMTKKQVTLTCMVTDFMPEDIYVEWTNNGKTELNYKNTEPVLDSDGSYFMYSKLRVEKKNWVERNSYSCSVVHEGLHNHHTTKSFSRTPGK

T5: Fusion protein of extracellular domain of human TIGIT and His-tag (human TIGIT ECD-his) (human)
T5 chain: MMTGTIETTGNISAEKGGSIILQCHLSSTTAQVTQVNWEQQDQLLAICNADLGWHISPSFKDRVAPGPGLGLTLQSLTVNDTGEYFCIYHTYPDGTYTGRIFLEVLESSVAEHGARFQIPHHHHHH


Legend:
[1] = target: T1, human PVRIG-mFc protein (Acro, …); assay: FACS competition, PVRIG-mFc binding to CHO-K1-CD112 cells, competitor CD112 on cells
[2] = target: T2, Full-length human TIGIT on CHO-K1 cells …; assay: FACS; CHO-K1 human TIGIT high expression strain
How it was run: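 The EC50 was derived from binding curves obtained by flow cytometry on CHO-K1 cells expressing full-length TIGIT of human or cynomolgus monkey origin. Cells (2×10⁵/50 μL, 1% BSA-PBS) were mixed 1:1 with a 12-point, 3-fold antibody dilution series that began at 80 nM before mixing, then incubated for 60 min at 4° C.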

[3] = target: T3, TIGIT on human PBMCs stimulated by SEA; assay: FACS; binding to SEA-stimulated human PBMC
Procedure: The fresh human PBMCs (AllCells, PB004-C) were adjusted to a density of 5×10⁵/mL, added with SEA (Toxin Technology, Inc., CAT: AT101) to 100 ng/ml, and cultured at 37° C. with 5% CO₂ for 3 days. The cells were collected 3 days later, washed once with PBS (Hyclone, CAT #SH30256), added with Fc Block (BD, 564220) and then incubated at 4° C. for 10 minutes. After washing twice with PBS, the PBMCs were resuspended to 2×10⁵/50 μL with 1% BSA-PBS. The humanized antibodies were diluted to 80 nM with 1% BSA-PBS (diluted by 3-fold serial dilution for 12 concentration points). The 50 μL cells were then mixed with 50 μL diluted antibodies, and then incubated at 4° C. for 60 minutes. […] After washing twice with PBS, the cell samples were resuspended with 1% BSA-PBS, 100 μL/well and then analyzed by flow cytometry (BD, Canto II).

[4] = target: T4, Fusion protein of extracellular domain …; assay: ELISA, human TIGIT ECD-mFc
[5] = target: T5, Fusion protein of extracellular domain …; assay: BIAcore

| Binder | % AUC to COM701-hIgG4 [1] [%] | % AUC to SRF813-hIgG1 [1] [%] | % IC50 to COM701-hIgG4 [1] [%] | % IC50 to SRF813-hIgG1 [1] [%] | EC50 [2] [nM] | EC50 [3] [nM] | EC50 [4] [nM] | Kd [5] [nM] | koff [5] [s⁻¹] | kon [5] [M⁻¹ s⁻¹] |
| --- | --- | --- | --- | --- | --- | --- | --- | --- | --- | --- |
| PVRIG-A118 (Fc fusion, heavy chain antibody VHH-hinge-CH2-CH3, human IgG1 constant part; not shown: human IgG1 hinge-CH2-CH3) QVQLVESGGGLVQAGGSLRLSCAASETYFDLYVMGWYRQAPGKDRELVATITYTGSIKIVDSVKDRFTISRGDAKNTVSLQMSSLKPEDTAVYFCNADPSGLGRKVYWGQGTQVTVSS | 110 | 75.6 | 111 | 97.4 | – | – | – | – | – | – |
| PVRIG-A105 (Fc fusion, heavy chain antibody VHH-hinge-CH2-CH3, human IgG1 constant part; not shown: human IgG1 hinge-CH2-CH3) EVQLVESGGGLVQAGGSLRLSCAASGRTFDRHTMTWFRQAPGKEREFVATASRIPGDTYYSHSVKGRFTISRDNAKNTVYLQLNNLKPEDTAVYYCAATSAYCSEVDCYEKGSWYDNWGQGIQVTVSS | 115 | 84.1 | 99.7 | 97.7 | – | – | – | – | – | – |
| PVRIG-A50 (Fc fusion, heavy chain antibody VHH-hinge-CH2-CH3, human IgG1 constant part; also called PVRIG-50; not shown: human IgG1 hinge-CH2-CH3) EVQLVESGGGLVQPGGSLRLSCAASGFTFSYYDMSWVRQAPGKGLEWVSTINSNGGRTSYVDSVKGRFTISRDNTKNTLYLQMNSLKPEDTAVYYCVEGDPHNFGLENLSLRDFGSWGQGTQVTVSS | 104 | 81 | 99.1 | 91.8 | – | – | – | – | – | – |
| TIGIT-070-H1L1 (antibody, V domains shown, Humanized anti-TIGIT antibody) VH: EVQLVQSGAEVKKPGASVKVSCKASGYTFTNYYMHWVRQAPGQRLEWMGRIDPDSGGSKYNEKFKSRVTITVDKSASTAYMELSSLRSEDTAVYYCAREGHYGFYSDYWGQGTTVTVSS VL: DIQMTQSPSSLSASVGDRVTITCRVSENIYSYLAWYQQKPGKSPKLLIYNAKTLAEGVPSRFSGSGSGTDFTLTISSLQPEDFATYYCQHHYGNPLTFGPGTKVDIK | – | – | – | – | 0.494 | 0.121 | 0.0284 | 0.251 | 0.000219 | 875000 |
| TIGIT-002-H4L3 (antibody, V domains shown, Humanized anti-TIGIT antibody) VH: EVQLQESGPGLVKPSETLSLTCAVSGYSITSDSWNWIRQPPGKKLEYIGYISYSGNTYYNPSLKSRVTISRDTSKNQFSLKLSSVTAADTAVYYCARLDFSNYGGAVDYWGQGTTVTVSS VL: DIVMTQSPDSLAVSLGERATINCKASQNVRTAVAWYQQKPGQSPKLMIYSASYRYTGVPDRFSGSGSGTDFTLTISSLQAEDVAVYYCQQYYTTPWTFGGGTKVEIK | – | – | – | – | 0.297 | 0.0436 | 0.037 | 0.0994 | 0.000293 | 2.95e+06 |
| TIGIT-006-H5L3 (antibody, V domains shown, Humanized anti-TIGIT antibody) VH: EVQLQESGPGLVKPSETLSLTCAVSGYSMTSDYWNWIRQPPGKKLEYIGYISYSGRTYYNPSLKSRVTISRDTSKNQFSLKLSSVTAADTAVYYCARGDYSNYGGAMYDWGQGTTVTVSS VL: DIVMTQSPDSLAVSLGERATINCRASQGVSTTIAWYQQKPGQSPKLLIYSASYRYTGVPRFSGSGSGTDFTLTISSLQAEDVAVYYCQQYYSSPFTFGGGTKVEIK | – | – | – | – | 0.443 | 0.0916 | 0.0319 | 0.115 | 0.000183 | 1.6e+06 |
| TIGIT-005-H2L1d (antibody, V domains shown, Humanized anti-TIGIT antibody with NG-site mutation in VL) VH: EVQLVQSGAEVKKPGASVKVSCKASGYAFTNYLIEWVRQAPGQRLEWMGVINPGSGGTNYKEKFKGRVTITADKSSSTAYMELSSLRSEDTAVYYCARGEYFFFDYWGQGTTVTVSS VL: DIVMTQSPDSLAVSLGERATINCKASQHVSNAVAWYQHKPGQSPKLLIYSASYRYTGVPDRFSGSGSGTDFTLTISSLQAEDVAVYYCQQHYNTPHTFGGGTKVEIK | – | – | – | – | 0.321 | 0.0602 | 0.0311 | 0.0852 | 0.000257 | 3.02e+06 |
